Measured values from the Immune Epitope Database (IEDB).

Tests used:
HLA-A*02:01 [1] = test: IEDB peptide-MHC binding, purified MHC/competitive/radioactivity; ≥ and ≤ were set here for values at or beyond the usual limits of such assays; conditions: source organism: Homo sapiens
HLA-A*02:01 [2] = test: IEDB peptide-MHC binding, purified MHC/competitive/fluorescence; filed as Kd, often an IC50 or EC50 that approximates it; ≥ and ≤ were set here for values at or beyond the usual limits of such assays
HLA-C*12:03 = test: IEDB peptide-MHC binding, purified MHC/direct/fluorescence; filed as Kd, often an IC50 or EC50 that approximates it; ≥ and ≤ were set here for values at or beyond the usual limits of such assays
HLA-A*30:01 = test: IEDB peptide-MHC binding, purified MHC/competitive/radioactivity; filed as Kd, often an IC50 or EC50 that approximates it; ≥ and ≤ were set here for values at or beyond the usual limits of such assays; conditions: source organism: Vaccinia virus WR
HLA-B*08:01 [3] = test: as above; conditions: source organism: Vaccinia virus WR
HLA-B*15:01 [4] = test: as above; conditions: source organism: Vaccinia virus WR
HLA-B*15:03 = test: as above; conditions: source organism: Vaccinia virus WR
HLA-A*32:01 = test: as above; conditions: source organism: Vaccinia virus WR
HLA-B*51:01 = test: IEDB peptide-MHC binding, purified MHC/competitive/fluorescence; filed as Kd, often an IC50 or EC50 that approximates it; ≥ and ≤ were set here for values at or beyond the usual limits of such assays; conditions: source organism: Zaire ebolavirus
HLA-A*26:01 = test: as above; conditions: source organism: Zaire ebolavirus
HLA-B*39:01 = test: as above; conditions: source organism: Zaire ebolavirus
HLA-B*57:01 = test: as above; conditions: source organism: Zaire ebolavirus
HLA-B*18:01 = test: as above; conditions: source organism: Zaire ebolavirus
HLA-B*15:17 = test: as above; conditions: source organism: Zaire ebolavirus
HLA-B*15:01 [5] = test: as above; conditions: source organism: Zaire ebolavirus
HLA-B*27:03 = test: as above; conditions: source organism: Zaire ebolavirus
HLA-B*46:01 = test: as above; conditions: source organism: Zaire ebolavirus
HLA-A*02:01 [6] = test: IEDB peptide-MHC binding, purified MHC/competitive/fluorescence; ≥ and ≤ were set here for values at or beyond the usual limits of such assays; conditions: source organism: Zaire ebolavirus
HLA-B*08:01 [7] = test: as above; conditions: source organism: Zaire ebolavirus
HLA-B*07:02 [8] = test: as above; conditions: source organism: Zaire ebolavirus
HLA-A*24:03 = test: IEDB peptide-MHC binding, purified MHC/direct/fluorescence; filed as Kd, often an IC50 or EC50 that approximates it; ≥ and ≤ were set here for values at or beyond the usual limits of such assays; conditions: source organism: Zaire ebolavirus
HLA-A*02:12 = test: as above; conditions: source organism: Zaire ebolavirus
HLA-A*23:01 = test: as above; conditions: source organism: Zaire ebolavirus
HLA-B*07:02 [9] = test: as above; conditions: source organism: Zaire ebolavirus
HLA-A*03:01 = test: as above; conditions: source organism: Zaire ebolavirus
HLA-A*02:19 = test: as above; conditions: source organism: Zaire ebolavirus
HLA-A*02:03 = test: as above; conditions: source organism: Zaire ebolavirus
HLA-A*02:16 = test: as above; conditions: source organism: Zaire ebolavirus
HLA-A*02:11 = test: as above; conditions: source organism: Zaire ebolavirus
HLA-A*29:02 = test: as above; conditions: source organism: Zaire ebolavirus
HLA-A*68:02 = test: as above; conditions: source organism: Zaire ebolavirus

## CQWGRLWQL
HLA-A*02:01 [1]
  IC50: 1.43 µM

## FIFLKKNEL
HLA-A*02:01 [2]; source organism: Variola virus
  Kd: 3.02 µM
HLA-C*12:03; source organism: Variola virus
  Kd: 1.45 µM
HLA-A*30:01
  Kd: 0.0439 µM
HLA-B*08:01 [3]
  Kd: 0.0966 µM
HLA-B*15:01 [4]
  Kd: 4.77 µM
HLA-B*15:03
  Kd: 18.5 µM
HLA-A*32:01
  Kd: 12.8 µM

## HAATNFREI
HLA-C*12:03; source organism: Angomonas deanei
  Kd: 0.025 µM

## HPLARTAKV
HLA-A*02:01 [2]; source organism: Zaire ebolavirus
  Kd: ≥ 20 µM
HLA-B*51:01
  Kd: 0.201 µM
HLA-A*26:01
  Kd: ≥ 20 µM
HLA-B*39:01
  Kd: ≥ 20 µM
HLA-B*57:01
  Kd: ≥ 20 µM
HLA-B*18:01
  Kd: ≥ 20 µM
HLA-B*15:17
  Kd: ≥ 20 µM
HLA-B*15:01 [5]
  Kd: ≥ 20 µM
HLA-B*27:03
  Kd: ≥ 20 µM
HLA-B*46:01
  Kd: ≥ 20 µM
HLA-A*02:01 [6]
  IC50: ≥ 113 µM
HLA-B*08:01 [7]
  IC50: 54.5 µM
HLA-B*07:02 [8]
  IC50: 3.11 µM
HLA-A*24:03
  Kd: ≥ 20 µM
HLA-A*02:12
  Kd: ≥ 20 µM
HLA-A*23:01
  Kd: ≥ 20 µM
HLA-B*07:02 [9]
  Kd: 0.0459 µM
HLA-A*03:01
  Kd: ≥ 20 µM
HLA-A*02:19
  Kd: ≥ 20 µM
HLA-A*02:03
  Kd: ≥ 20 µM
HLA-A*02:16
  Kd: ≥ 20 µM
HLA-A*02:11
  Kd: ≥ 20 µM
HLA-A*29:02
  Kd: ≥ 20 µM
HLA-A*68:02
  Kd: ≥ 20 µM
